Results as given in patent publication US20100069304A1, “PROTECTIVE EFFECTS OF INHIBITING THE INTERACTION OF CALMODULIN AND MUTANT HUNTINGTIN PROTEIN” (priority 2008, published 2010).

Target: htt-N63-148Q (63 amino acid N-terminal huntingtin fragment containing 148 polyglutamine repeats) (UniProt P42858)
Test: cell-based or functional assay

Chain of htt-N63-148Q (63 amino acid N-terminal huntingtin fragment containing 148 polyglutamine repeats) (P42858 other isoform, or with tags, fused parts or gaps limits assumed): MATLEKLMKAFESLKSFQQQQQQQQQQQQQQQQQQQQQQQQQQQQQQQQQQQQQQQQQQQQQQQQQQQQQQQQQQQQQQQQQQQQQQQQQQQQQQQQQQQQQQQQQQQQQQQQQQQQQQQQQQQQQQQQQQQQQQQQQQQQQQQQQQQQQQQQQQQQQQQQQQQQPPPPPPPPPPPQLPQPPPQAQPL

Row | Substance | TG-catalyzed modifications of huntingtin (second experiment, HEK-293T cells) (fold decrease) | TG-modified huntingtin (81D4 immunoprecipitation, immunoblot, HEK-293T cells) (fold decrease) | cytotoxicity (LDH assay, HEK-293T cells) | cytotoxicity (LDH assay, second experiment, HEK-293T cells) | carbachol-stimulated intracellular Ca2+ release (Fura-2, HEK-293T cells)
1 | CaM-C-term (C-terminal CaM construct, last 72 amino acids of calmodulin) (from UniProt P0DP23 78-149) | 2 | 2 | 40 % decrease | 40 % decrease | 
2 | CaM-center (center region CaM construct, 77 amino acids in the center of calmodulin) (from UniProt P0DP23 37-113) | 2 | 2 | 40 % decrease | 50 % decrease | 10 % decrease
